Test results published in doi:10.1101/2025.05.20.653754 (bioRxiv, 2025).

Assays:
[1] = biological target: full-length Physcomitrium patens DUR3 (PpDUR3) fused with C-terminal GFP (Physcomitrium patens); test: SEC
[2] = biological target: full-length maize DUR3 fused with C-terminal GFP (Zea mays L.); test: SEC
[3] = biological target: maize DUR3 (ZmDUR3) with a C-terminal Strep-tag (Zea mays L.); test: cryo-EM structure
SEC = biological target: the molecule itself; test: SEC

“full-length Physcomitrium patens DUR3 (PpDUR3) fused with C-terminal GFP (natural protein)” was tested, and the stoichiometry N [1] was 4.

“full-length maize DUR3 fused with C-terminal GFP (natural protein)” gave a stoichiometry N [2] of 4.

Work on “maize DUR3 (ZmDUR3) with a C-terminal Strep-tag (natural protein)” yielded a stoichiometry N [3] of 4.

B1: full-length rice DUR3 (OsDUR3) fused with C-terminal GFP (natural protein, Oryza sativa, UniProt Q7XBS0 1-721, looked up)
chain: MASGVCPPAELGFGAEYYSVVNGVCSRAGSYFGGRPVLTQAVGYAVVLGFGAFFALFTSFLVWLEKRYVGSQHTSEWFNTAGRSVKTGLIASVIVSQWTWAATILQSSNVAWQYGVSGPFWYASGATIQVLLFGVMAIEIKRKAPNAHTVCEIVRARWGTPAHLVFLTFCLLTNVIVTAMLLLGGSAVVNALTGVNVYAASFLIPLGVVVYTLAGGLKATFLASYIHSVVVHAVLVVFVFLVYTSSSKLGSPRVVYDRLMAVASAARDCSADLSRNGQACGPVAGNFKGSYLTMLSSGGLVFGIINIVGNFGTVFVDNGYWMSAIAARPSSTHKGYLLGGLVWFAVPFSLATSLGLGALALDLPLTAAEAAKGLVPPATATALMGKSGSVLLLTMLFMAVTSAGSAELVAVSSLCTYDIYRTYLNPGASGKQILRVSRAVVLGFGCFMGVLAVVLNVAGVSLGWMYLAMGVIVGSAVIPIALLLLWSKANAVGAMGGAVSGCALGVAVWLTVAKVQYGRVNLDTTGRNAPMLAGNLVSILVGGAVHAACSLLRPQHYDWGTSREMITTVESVHAALDDELKEERLVHAKRWIVRWGLVFTAVIVVAWPALSLPARRYSLGYFTLWAAVAIAWGTVGSVVIILLPVAESWTTITKVCAGMFTNDAVYDRLDDVNLRLRAIMGAMPEAEKRYRQLHETEMHPAGTHPANDDDDDNNNNQMMHS
For B1, the “stoichiometry N” value (SEC) was 4.

B2: full-length Arabidopsis thaliana DUR3 fused with C-terminal GFP (natural protein, UniProt F4KD71 1-704, looked up)
chain: MATCPPFDFSTKYYDGDGGCQRQSSFFGGTTVLDQGVGYAVILGFGAFFAVFTSFLVWLEKRYVGARHTSEWFNTAGRNVKTGLIASVIVSQWTWAATILQSSNVAWQYGVSGPFWYASGATIQVLLFGVMAIEIKRKAPNAHTVCEIVKARWGTATHIVFLVFCLATNVVVTAMLLLGGSAVVNALTGVNLYAASFLIPLGVVVYTLAGGLKATFLASYVHSVIVHVALVVFVFLVYTSSKELGSPSVVYDRLKDMVAKSRSCTEPLSHHGQACGPVDGNFRGSYLTMLSSGGAVFGLINIVGNFGTVFVDNGYWVSAIAARPSSTHKGYLLGGLVWFAVPFSLATSLGLGALALDLPISKDEADRGLVPPATAIALMGKSGSLLLLTMLFMAVTSAGSSELIAVSSLFTYDIYRTYINPRATGRQILKISRCAVLGFGCFMGILAVVLNKAGVSLGWMYLAMGVLIGSAVIPIAFMLLWSKANAFGAILGATSGCVFGIITWLTTAKTQYGRVDLDSTGKNGPMLAGNLVAILTGGLIHAVCSLVRPQNYDWSTTREIKVVEAYASGDEDVDVPAEELREEKLRRAKAWIVKWGLVFTILIVVIWPVLSLPARVFSRGYFWFWAIVAIAWGTIGSIVIIGLPLVESWDTIKSVCMGMFTNDRVMKKLDDLNHRLRALTMAVPEAEKIYLLELEKTKKNDEEG
With B2 the “stoichiometry N” value (SEC) was 4.
